The source of these data is publication PMC13625576.

What all share (assay): SPR
(Surface plasmon resonance follows binding to a sensor surface in real time, without labels.)

In test [1] the target is 14A Fab G32R mutant (mouse).
Test [2] addresses 16A Fab R32G mutant (mouse).
For test [3], the target named is 16A Fab W34F mutant (mouse).

pKd: −log10 of the molar value.

The term pKd denotes the negative decadic logarithm of the Kd, by convention in mol/L. Broadly, the koff is a measure of how fast the partners let go of each other. By kon is commonly meant the rate constant with which the complex forms. Read a high kon as fast association. In test [1], “doubly glycosylated MUC1 peptide RPAPGS(GalNAc)T(GalNAc)APPAHG” had a pKd of 8.35, a koff of 0.00137 s⁻¹ and an on-rate (kon) of 303000 M⁻¹ s⁻¹. For the same substance, in test [2], the off-rate (koff) worked out at 0.00183 s⁻¹ and the kon worked out at 534000 M⁻¹ s⁻¹. In test [3], the pKd is 5.95, the koff worked out at 0.0901 s⁻¹ and the kon came to 79700 M⁻¹ s⁻¹.
As for “Ser-glycosylated MUC1 peptide RPAPGS(GalNAc)TAPPAHG”, the pKd in test [1] was 6.89; in test [2], 6.77; in test [3] it was 5.41. The koff in test [1] stood at 0.0229 s⁻¹; in test [2], 0.0294 s⁻¹; in test [3], 0.337 s⁻¹. Moreover, the kon in test [1] amounted to 180000 M⁻¹ s⁻¹; in test [2] it was 174000 M⁻¹ s⁻¹; in test [3], 86200 M⁻¹ s⁻¹.
In test [1], nonglycosylated MUC1 peptide … showed a pKd of 6.91, a koff of 0.0233 s⁻¹ and a kon of 191000 M⁻¹ s⁻¹. Moreover, in test [2], the pKd was 6.49, the koff was found to be 0.0532 s⁻¹ and the kon came out at 163000 M⁻¹ s⁻¹. In test [3], this substance gave a negative logarithm of the Kd (pKd) of 5.46, a koff of 0.295 s⁻¹ and a kon of 86200 M⁻¹ s⁻¹.
Consider “Thr-glycosylated MUC1 peptide RPAPGST(GalNAc)APPAHG”, for which, in test [1], the koff was found to be 0.00159 s⁻¹ and the kon was found to be 314000 M⁻¹ s⁻¹. In test [2], this substance had a pKd of 7.64, a koff of 0.00823 s⁻¹ and a kon of 359000 M⁻¹ s⁻¹. For the same substance, in test [3], the pKd is 5.91, the koff was 0.09 s⁻¹ and the kon worked out at 73600 M⁻¹ s⁻¹.
